In patent US20040235157A1:

Molecular target: Type I interferon receptor (endogenous, on human promonocytic PIL5 cells derived from U937) (human) (UniProt P17181)
Test: cell-based or functional assay

Chain of UniProt P17181 (P17181 28-557, chain 1 of 2): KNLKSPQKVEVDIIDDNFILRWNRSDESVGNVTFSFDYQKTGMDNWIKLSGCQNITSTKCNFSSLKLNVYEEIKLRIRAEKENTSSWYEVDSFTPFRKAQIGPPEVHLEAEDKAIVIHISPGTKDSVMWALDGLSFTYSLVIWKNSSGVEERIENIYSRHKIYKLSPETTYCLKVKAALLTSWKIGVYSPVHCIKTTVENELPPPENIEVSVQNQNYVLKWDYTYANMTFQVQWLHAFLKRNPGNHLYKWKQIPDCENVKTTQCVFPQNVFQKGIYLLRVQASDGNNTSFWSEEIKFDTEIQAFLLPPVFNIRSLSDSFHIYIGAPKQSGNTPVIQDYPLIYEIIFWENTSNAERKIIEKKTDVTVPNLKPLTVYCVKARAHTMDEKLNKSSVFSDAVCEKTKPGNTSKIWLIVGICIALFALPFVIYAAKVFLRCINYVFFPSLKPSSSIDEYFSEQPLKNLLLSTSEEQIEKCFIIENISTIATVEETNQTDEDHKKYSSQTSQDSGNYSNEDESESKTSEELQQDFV
Chain of UniProt P17181 (P48551 27-515, chain 2 of 2, further chain): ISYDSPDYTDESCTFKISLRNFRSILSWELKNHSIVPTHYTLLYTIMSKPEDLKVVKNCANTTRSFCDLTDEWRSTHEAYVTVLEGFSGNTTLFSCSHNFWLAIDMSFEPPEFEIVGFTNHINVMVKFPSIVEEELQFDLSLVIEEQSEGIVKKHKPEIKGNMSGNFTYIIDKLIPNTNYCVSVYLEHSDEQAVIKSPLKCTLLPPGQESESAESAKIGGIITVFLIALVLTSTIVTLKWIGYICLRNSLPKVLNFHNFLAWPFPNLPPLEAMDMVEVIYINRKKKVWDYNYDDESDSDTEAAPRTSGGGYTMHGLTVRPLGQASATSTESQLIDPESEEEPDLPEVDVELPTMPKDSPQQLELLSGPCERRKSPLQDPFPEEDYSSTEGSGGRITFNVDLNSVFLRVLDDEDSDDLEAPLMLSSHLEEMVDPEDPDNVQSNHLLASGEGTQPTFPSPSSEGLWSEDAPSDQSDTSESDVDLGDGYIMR

Row | luciferase gene reporter assay using PIL5 cells (lowest detectable IFN activity) | Substance
1 | < 1 IU/ml | human IFN α (standard preparation of human interferon alpha) (ligand)
2 | < 1 IU/ml | IFNβ (from UniProt P01574 22-187) (ligand)
